Measurements taken from patent US20060149033A1, “IGF antagonist peptides” (GENENTECH, INC., priority 2001, published 2006).
Bridge positions count the residues as written; N and C are the ends. Peptide text beside a SMILES is read from it.

Tests used:
IGF-1 = biological target: T1, IGF-1 (Homo sapiens, UniProt P05019); assay: Affinity measurement by monovalent phage ELISA (phage competition IC50); assay type: binding; conditions: positive second generation clones
T1 construct: made in house
Protocol: E. coli XL1-Blue harboring phagemids were grown overnight at 37° C. in 2YT, 50 μg/mL carbenicillin, 10 μg/mL tetracycline and M13-VCS helper phage (10^10 phage/mL). Phage were harvested from the culture supernatant by precipitation twice with PEG/NaCl and resuspended in phosphate-buffered saline, 0.2% BSA, 0.1% TWEEN®-20 detergent (BSA blocking buffer). Phage concentrations were determined spectrophotometrically (λ268=1.2×10^8 M^−1 cm^−1).
MAXISORP™ immunoplates (96-well) were coated with capture target protein for 2 hours at room temperature (100 μL at 5 μg/mL in 50 mM carbonate buffer, pH 9.6). The plates were then blocked for 1 h with 0.2% BSA in phosphate-buffered saline (PBS) and washed eight times with PBS, 0.05% TWEEN®-20 detergent. Phage particles were serially diluted into BSA blocking buffer and 100 μL were transferred to coated wells. After 1 h, plates were washed eight times with PBS, 0.05% TWEEN®-20 detergent, incubated with 100 μL of 1:3000 horse radish peroxidase/anti-M13 antibody conjugate in BSA blocking buffer for 30 min, and then washed eight times with PBS, 0.05% TWEEN®-20 detergent and two times with PBS. Plates were developed using a tetramethylbenzidine substrate (TMB, Kirkegaard and Perry, Gaithersburg, Md.), stopped with 1.0 M H3PO4, and read spectrophotometrically at […].
Affinity Measurement by Monovalent Phage ELISA
Phage ELISAs were carried out as described above, using plates coated with IGF-1. Peptide-displaying phage were serially diluted and binding was measured to determine a phage concentration giving <50% of the ELISA signal at saturation.
A fixed, subsaturating concentration of peptide-phage was mixed with serial dilutions of IGF-1 and incubated for 1.0 hr and then transferred to assay plates coated with IGF-1. After 30-min incubation, the plates were washed and developed as described above. The binding affinities of the peptides for IGF-1 were determined as IC50 values where the IC50 value is defined as the concentration of IGF-1 that blocked 50% of the peptide-phage binding to the immobilized IGF-1.

[1] = tested on: human type 1 IGF-1 receptor; assay: Cell-based IGF-1 KIRA assay; conditions: MCF-7 cells; peptides preincubated 30 min with 2 nm IGF-1; 15-minute stimulation
Protocol: Cell-Based IGF-1 KIRA Assay
A KIRA for measuring the activation of the human type 1 IGF-1 receptor was performed using human MCF-7 cells (as described above). Cells were grown overnight in 96-well plates with medium (50:50 F12/DMEM, Gibco). Supernatants were decanted, and stimulation media (50:50 F12/DMEM with 25 mM HEPES and 2.0% BSA) containing either controls (2 nM IGF-1 preincubated with IGF Bp1 or Bp3) or experimental samples (Peptides preincubated for 30 min. with 2 nm IGF-1) were added. After 15-minute stimulation the cells were lysed, and added to the polyclonal anti-IGF-R (3B7 Santa Cruz Biotech) coated overnight on immunosorbant plates. The detection ELISA was performed as above.

[2] = tested on: human insulin receptor (hIR); assay: Cell-based insulin KIRA assay (kinase receptor activation); conditions: Chinese hamster ovary cells transfected with hIR; peptides incubated with 25 nm IGF-1 for 1 hr; 15 min stimulation
Protocol: Cell-Based Insulin KIRA Assay of IGF-1 Binding Peptide Activity
A kinase receptor activation assay (KIRA) (Sadick et al., J. Pharm. Biomed. Anal., 19, 883-891 (1999)) for measuring phosphorylation of human insulin receptor (hIR) was developed using Chinese hamster ovary cells transfected with the hIR. (TRY-1R 5.3) Cells were grown overnight in 96-well plates with medium (PS/20) at 37° C. Supernatants were decanted and stimulation media (PS/20 and 0.5% BSA) containing either peptide samples (peptides incubated with 25 nm IGF-1 for 1 hr), experimental controls (IGF Bp1 incubated with IGF-1 for 1 hr), and 25 nm rhIGF-1 standards were added. After fifteen minute stimulation at 37° C., stimulation solutions were removed and cells were lysed with a buffer containing 50 mM HEPES, 150 mM NaCl, 0.5% Triton-X-100™ octylphenyl ethylene oxide condensate, 1 mM AEBSF, aprotinin and 0.05 mM leupeptin, and 2 mM sodium orthovanadate. Lysates were frozen at −70° C. for ELISA. Immunosorbant plates were coated with 2 μg/ml insulin receptor Ab-2 (clone 83-7) in PBS at pH 7.0 overnight at 4° C. The plate was blocked and washed as above. Cell lysates containing transfected hIR were incubated on the capture ELISA plates for 2 hrs. After removing unbound receptor by washing, biotinylated anti-phosphotyrosine 4G10 (Upstate Biologicals Inc.) was added to detect activated receptor. After 2 hrs, the plates were developed with streptavidin conjugated to HRP and TMB substrate as above.

T1 sequence (P05019 49-118 limits assumed): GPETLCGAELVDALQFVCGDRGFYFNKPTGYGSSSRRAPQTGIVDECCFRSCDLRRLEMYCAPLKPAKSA

Row | Compound | IC50 (IGF-1) | IC50 [1] | IC50 [2]
1 | F2-M (WRCAQDAGGWTYCWA; Sequence is synthesized) [Peptide F2-M] | 1.04 µM | – | –
2 | F2-N (WRCVTDAGGRPYCWA; Sequence is synthesized) [Peptide F2-N] | 1.18 µM | – | –
3 | F1-G (SDCFESVEALRACMY; Sequence is synthesized) [Peptide F1-G] | 0.968 µM | – | –
4 | F2-D (VRCAWDLGGRAYCWA; Sequence is synthesized) [Peptide F2-D] | 249 µM | – | –
5 | F2-A (GGCASDLAGFRYCWE; Sequence is synthesized) [Peptide F2-A] | 1.33 µM | – | –
6 | F1-F (FECLTSVEALRGCMY; Sequence is synthesized) [Peptide F1-F] | 0.286 µM | – | –
7 | F2-K (YRCATDLAGFSYCWA; Sequence is synthesized) [Peptide F2-K] | 1.45 µM | – | –
8 | F2-H (WRCVDDLGGFQYCWA; Sequence is synthesized) [Peptide F2-H] | 0.319 µM | – | –
9 | F1-H (MDCLASVEALKWCMY; Sequence is synthesized) [Peptide F1-H] | 0.147 µM | – | –
10 | CC(C)C[C@@H]1NC(=O)[C@H](CC(=O)O)NC(=O)[C@H](CC(=O)O)NC(=O)[C@H](C(C)C)NC(=O)[C@@H](NC(=O)[C@H](CCCNC(=N)N)NC(=O)[C@@H](N)Cc2c[nH]c3ccccc23)CSSC[C@@H](C(=O)N[C@@H](Cc2c[nH]c3ccccc23)C(=O)N[C@@H](C)C(=O)NCC(=O)O)NC(=O)[C@H](Cc2ccc(O)cc2)NC(=O)[C@H](CCC(N)=O)NC(=O)[C@H](Cc2ccccc2)NC(=O)CNC(=O)CNC1=O [Peptide F2-2, WRCVDDLGGFQYCWAG] (H-WRCVDDLGGFQYCWAG-OH; disulfide 3-13 (inferred); N-terminus and C-terminus assumed) | – | 130 µM | 93.6 µM
11 | F1-A (HPCLESVGALKACMY; Sequence is synthesized) [Peptide F1-A] | 0.401 µM | – | –
12 | F2-C (VKCARDLSGFVYCWA; Sequence is synthesized) [Peptide F2-C] | 10000 µM | – | –
13 | CSCC[C@H](NC(=O)[C@@H]1CSSC[C@H](NC(=O)[C@H](CCC(=O)O)NC(=O)[C@@H](N)CC(=O)O)C(=O)N[C@@H](CC(C)C)C(=O)N[C@@H](CCSC)C(=O)N[C@@H](CO)C(=O)N[C@@H](C(C)C)C(=O)N[C@@H](CCC(=O)O)C(=O)N[C@@H](C)C(=O)N[C@@H](CC(C)C)C(=O)N[C@@H](CCCCN)C(=O)N[C@@H](CC(N)=O)C(=O)N1)C(=O)NCC(=O)NCC(=O)O [Peptide F1-P, DECLMSVEALKNCMGG] (H-DECLMSVEALKNCMGG-OH; disulfide 3-13) | – | 400 µM | 183 µM
14 | F2-J (LRCAEDLGGYFYCWA; Sequence is synthesized) [Peptide F2-J] | 2.12 µM | – | –
15 | F2-L (ARCARDAGGFYYCWA; Sequence is synthesized) [Peptide F2-L] | 4.36 µM | – | –
16 | F1-C (RNCFESVAALRRCMY; Sequence is synthesized) [Peptide F1-C] | 0.108 µM | – | –
17 | F1-B (FGCYESVAALRTCMY; Sequence is synthesized) [Peptide F1-B] | 0.301 µM | – | –
18 | F2-F (FRCAWELGWLYVLGL; Sequence is synthesized) [Peptide F2-F] | 209 µM | – | –
19 | F1-E (SDCFGSVEALKMCMY; Sequence is synthesized) [Peptide F1-E] | 0.711 µM | – | –
20 | F2-B (VRCAYDAGGSRYCWE; Sequence is synthesized) [Peptide F2-B] | 24.6 µM | – | –
21 | F2-G (ASCVADAGGGGYCWD; Sequence is synthesized) [Peptide F2-G] | 0.986 µM | – | –
22 | CC(C)[C@@H]1NC(=O)[C@@H](NC(=O)[C@H](CCCNC(=N)N)NC(=O)[C@H](C)N)CSSC[C@@H](C(=O)N[C@@H](Cc2c[nH]c3ccccc23)C(=O)N[C@@H](C)C(=O)NCC(=O)O)NC(=O)[C@H](Cc2ccc(O)cc2)NC(=O)[C@H](Cc2c[nH]c3ccccc23)NC(=O)[C@H]([C@@H](C)O)NC(=O)CNC(=O)CNC(=O)[C@H](C)NC(=O)[C@H](CC(=O)O)NC(=O)[C@H](C(C)C)NC1=O [Peptide F2-P, ARCVVDAGGTWYCWAG] (H-ARCVVDAGGTWYCWAG-OH; disulfide 3-13) | – | – | 300 µM
23 | CC(C)C[C@@H]1NC(=O)[C@H](CC(=O)O)NC(=O)[C@H](CO)NC(=O)[C@H](C)NC(=O)[C@@H](NC(=O)CNC(=O)[C@@H](N)CC(C)C)CSSC[C@@H](C(=O)N[C@@H](Cc2c[nH]c3ccccc23)C(=O)N[C@@H](C)C(=O)NCC(=O)O)NC(=O)[C@H](Cc2ccc(O)cc2)NC(=O)[C@H](Cc2c[nH]c3ccccc23)NC(=O)[C@H](Cc2ccccc2)NC(=O)CNC(=O)[C@H](C)NC1=O [Peptide F2-1, LGCASDLAGFWYCWAG] (H-LGCASDLAGFWYCWAG-OH; disulfide 3-13 (inferred); N-terminus and C-terminus assumed) | – | – | 40.4 µM
24 | F2-E (LGCASDLAGFWYCWA; Sequence is synthesized) [Peptide F2-E] | 0.554 µM | – | –
25 | F2-I (VTCAADALGFLYCWE; Sequence is synthesized) [Peptide F2-I] | 1.03 µM | – | –
